Assays:
[1] = target: T1, KGF (hKGF) (Homo sapiens, UniProt P21781 P21781:32-194); assay: filter; DPBS 37 C; conditions: tags: Upstate Biotechnology
T1 sequence: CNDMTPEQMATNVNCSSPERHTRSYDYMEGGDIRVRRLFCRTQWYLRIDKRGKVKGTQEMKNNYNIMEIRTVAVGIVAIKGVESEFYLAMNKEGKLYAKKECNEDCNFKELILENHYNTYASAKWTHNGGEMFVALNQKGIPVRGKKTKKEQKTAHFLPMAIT

[2] = target: T1, KGF (hKGF); assay: competition; PC-3 assay; conditions: tags: Upstate Biotechnology
Method: PC-3 cells were plated in 24-well plates at about 10^5 cells per well. Following growth for […], the cells were serum starved for 24 hours, washed two times with 500 µl of cold DPBS, and then incubated with 500 µl binding buffer (BB1; DPBS, 0.5 mM MgCl_2, 0.2% BSA. 0.02% sodium azide) containing various concentrations of ^125I-labeled KGF ranging from 0 to 0.8 nM. Following 3–3.5 hour incubation at 4° C., the binding mixes were aspirated and the well-adhered cells were washed two times with 1 ml BB1 and once with 1 ml BB1 supplemented with 0.5M NaCl. The remaining bound labeled hKGF was solubilized in 600 µl 0.5% SDS/0.1M NaOH and counted in a gamma counter (Beckmann). Nonspecific binding was determined in the presence of 100 fold molar excess of unlabeled hKGF. For competition assays, the labeled hKGF was kept constant at 0.3 nM, and varying concentrations of competitor molecules were included in the binding reactions ranging from 0–1,000 nM. Binding curves were fitted to the equation: […]
A subset of these ligands was tested on the NIH3T3/FGFR-2. In determining the Ki values, it was assumed that 3T3 cells have 500,000 binding sites per cell and PC-3 cells have 5,000 binding sites per cell.

[3] = target: T2, PDGF-AB (Homo sapiens, UniProt P04085;P01127 P04085:87-211,P01127:82-190); assay: filter; 20t binds within factor 2 of full length; conditions: tags: R&D Systems
T2 sequence (P01127 82-190, chain 2 of 2, other chains not shown): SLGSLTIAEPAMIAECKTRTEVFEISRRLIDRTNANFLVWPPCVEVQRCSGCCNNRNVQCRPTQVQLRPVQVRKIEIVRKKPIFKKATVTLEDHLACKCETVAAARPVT
Method: (§1) D. Determination of the Apparent Equilibrium Dissociation Constants and the Dissociation Rate Constants The binding of ssDNA ligands at low concentrations to varying concentrations of PDGF was determined by the nitrocellulose filter binding method as described (Green et al., (1995) *Chemistry and Biology* 2: 683–695). The concentrations of PDGF stock solutions (in PBS) were determined from the absorbance readings at […] using the following $e280$ values calculated from the amino acid sequences (Gill, S. C., and von Hippel, P. H. (1989) *Anal. Biochem.* 182: 319–326): 19,500 M^-1cm^-1 for PDGF-AA, 15,700 M^-1cm^-1 for PDGF-AB and 11,800 M^-1cm^-1 for PDGF-BB. ssDNA for all binding experiments were purified by electrophoresis on 8% (>80 nucleotides) or 12% (<40 nucleotides) polyacrylamide/7 M urea gels. All ssDNA ligands were heated at 90° C. in binding buffer at high dilution ($\approx$1 nM) for 2 min and cooled on ice prior to frier dilution into the protein solution. The binding mixtures were typically incubated for 15 min at 37° C. before partitioning on nitrocellulose filters.

[4] = target: T3, TGF-beta1 (Homo sapiens, UniProt P01137 P01137:279-390); assay: filter; boundary experiment; conditions: tags: Genentech; chain copies: 2
T3 sequence (P01137 279-390, one chain of several): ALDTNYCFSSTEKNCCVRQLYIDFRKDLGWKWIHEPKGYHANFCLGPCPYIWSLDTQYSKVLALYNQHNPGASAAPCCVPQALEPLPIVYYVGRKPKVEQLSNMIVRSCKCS

[5] = target: T4, PDGF-BB (Homo sapiens, UniProt P01127 P01127:82-190); assay: competition; no effect on receptor binding or mitogenesis; conditions: tags: R&D Systems; chain copies: 2; stem-loop
T4 sequence (P01127 82-190, one chain of several): as the sequence (P01127 82-190, chain 2 of 2, other chains not shown) above
Method: After incubation for 24 h at 37° C., ^3H-radioactivity incorporated into DNA was determined using a β-counter.

[6] = target: T2, PDGF-AB; assay: filter; thrombin aptamer control; conditions: tags: R&D Systems, E. coli; predicted stem-loop
[7] = target: T3, TGF-beta1; assay: filter; n=3; KRH buffer 37 C; IC50 25 ± 14 nM in PAI-luciferase assay; conditions: tags: Genentech or R&D Systems; chain copies: 2
[8] = target: PDGF-AA (Homo sapiens, UniProt P04085 P04085:87-211); assay: filter; 37 C; comparable to random DNA; conditions: tags: R&D Systems, E. coli, long form A-chain; chain copies: 2; label: 5'-32P; three-way helix junction
Method: as §1
(§2) The fraction of ^32P 5' end-labeled DNA ligands bound to varying concentrations of PDGF was determined by the nitrocellulose filter binding method. Minimal ligands tested were 20t (○), 36t (Δ), and 41t (□). […]

[9] = target: T4, PDGF-BB; assay: competition; 125I-PDGF-BB binding to PDGF alpha-receptor on PAE cells; conditions: tags: R&D Systems; chain copies: 2; three-way junction
[10] = target: T4, PDGF-BB; assay: filter; 37 C, PBSM + 0.01% HSA; high affinity component; conditions: tags: R&D Systems, E. coli; chain copies: 2; label: 5'-32P; three-way helix junction
Method: as §1, §2

[11] = target: T2, PDGF-AB; assay: as above; conditions: tags: R&D Systems, E. coli; label: 5'-32P; three-way helix junction
Method: as §1, §2

[12] = target: T2, PDGF-AB; assay: filter; 41t binds within factor 2 of full length; conditions: tags: R&D Systems
Method: as §1

[13] = target: T3, TGF-beta1; assay: cell_activity; second value 298 nM; conditions: tags: Genentech; chain copies: 2
Method: (§3) Mink lung epithelial cells (MLEC) carrying the Pai1/luc construct were maintained in DME containing 10% fetal bovine serum and 400 μg/ml G418. MLEC-Pai1/luc cells were plated at 3.2×10^4 cells per well in a 96 well Falcon plate, in 100 μl of DME+10% fetal bovine serum overnight. Media was made from autoclaved water. The cells were washed three times (100 μl) in serum free DME plus Solution A (1:1). Solution A is 30 mM Hepes pH 7.6, 10 mM glucose, 3.0 mM KCl, 131 mM NaCl, 1.0 mM disodium phosphate. Samples (100 μl) were added in DME containing 20 mM Hepes pH 7.5, and 0.1% BSA (Fluka, radioimmunoassay grade). All samples were in triplicate. After six hours at 37° C. in a 5% CO_2 incubator the media was removed and cells were washed three times (100 μl each) in cold PBS. Lysis buffer (75 μl) (Analytical Luminescence Laboratory) was added and the plates incubated on ice for 20 min. The plates were sealed and frozen at −80° C. until assayed. Samples (25 μl) were assayed for luciferase activity with the Enhanced Luciferase Assay Kit from Analytical Luminescence Laboratory (San Diego, Calif., USA) according to the manufacturers instructions using the Berthold Microlumat LB96P luminometer.
(§4) Ligands tested for inhibition of TGFβ1 activity were tested at a minimum of five concentrations. […]

[14] = target: T3, TGF-beta1; assay: cell_activity; second value 103 nM; conditions: tags: Genentech; chain copies: 2
Method: as §3, §4

B1: 4N (ssRNA)
RNA: GGGAGGACGAUGCGGGUGGUGAAGAGGUACCGGAAUUGCUAAAGAUACCACGGCCCAGACGACUCGCCCGA
modifications: 2'-NH2 pyrimidines
[1]
  Kd: 0.75 nM

B2: 4N (K4N) (ssRNA)
RNA: B1 RNA
modifications: 2'-NH2 pyrimidines
[2]
  IC50: 70 nM

B3: 10F (ssRNA)
RNA: GGGAGGACGAUGCGGGACCAGAUGGCGGAUUUUUCAGCAAUCCUCCCCCCGCUGCCCAGACGACUCGCCCGA
modifications: 2'-F pyrimidines
[1]
  Kd: 0.47 nM

B4: 10F (K10F) (ssRNA)
RNA: B3 RNA
modifications: 2'-F pyrimidines
[2]
  IC50: 30 nM

B5: ligand 20 full length (ssDNA)
DNA: ATCCGCCTGATTAGCGATACTATGGGAGGGCGCGTTCTTCGTGGTTACTTTTAGTCCCGACTTGAGCAAAATCACCTGCAGGGG
[3]
  binding result: binds

B6: lib3-13-79 (ssRNA)
RNA: GGGGGAGAACGCGGAUCCGAGCAAUCCCAGGCGCAUAGCUUCCGAGUAGACAGGAGGGAGGGGUGGAUGUGGCGUCUAC
[4]
  binding result: binds

B7: T39 (ssDNA)
DNA: CAGTCCGTGGTAGGGCAGGTTGGGGTGACTTCGTGGAA
modifications: 3'-3' inverted T
[5]
  binding result: no binding
[6]
  Kd: 230 nM

B8: lib3-13 (ssRNA)
RNA: GGGGGAGAACGCGGAUCCGAGCAAUCCCAGGCGCAUAGCUUCCGAGUAGACAGGAGGGAGGGGUGGAUGUGGCGUCUACUCGGUGUCGUGAAGCUUCGCUCUAGAUCUCCCUUUAGUGAGGGUUA
modifications: 2'-NH2 pyrimidines
[7]
  Kd: 0.83 nM

B9: 20t (ssDNA)
DNA: TGGGAGGGCGCGTTCTTCGTGGTTACTTTTAGTCCCG
modifications: 3'-3' inverted T
[8]
  Kd: 47 nM
[9]
  IC50: ~1 nM
[10]
  Kd: 0.127 nM
[11]
  Kd: 0.147 nM

B10: ligand 41 full length (ssDNA)
DNA: ATCCGCCTGATTAGCGATACTCAGGGCACTGCAAGCAATTGTGGTCCCAATGGGCTGAGTACTTGAGCAAAATCACCTGCAGGGG
[12]
  binding result: binds

B11: lib2-6-1-81 (ssRNA)
RNA: GGGGGAGAACGCGGAUCCUGUCUCCACCGCCGAUACUGGGGUUCCUGGGGCCCCUCCAUGCAGGAGGGGGGUGGUUCGGAG
modifications: 2'-NH2 U, 2'-F C
[13]
  IC50: 201 nM

B12: 47N (ssRNA)
RNA: GGGAGGACGAUGCGGGAAGGGUAGGAAGGUCAAGAGGAAACAGCGCUUCGGGGGUGCAGACGACUCGCCCGA
modifications: 2'-NH2 pyrimidines
[1]
  Kd: 1.76 nM

B13: lib3-13-(38-123) (ssRNA)
RNA: GCUUCCGAGUAGACAGGAGGGAGGGGUGGAUGUGGCGUCUACUCGGUGUCGUGAAGCUUCGCUCUAGAUCUCCCUUUAGUGAGGGU
[4]
  binding result: binds

B14: lib2-6-1 (ssRNA)
RNA: GGGGGAGAACGCGGAUCCUGUCUCCACCGCCGAUACUGGGGUUCCUGGGGCCCCUCCAUGCAGGAGGGGGGUGGUUCGGAGAAAGCUUCGCUCUAGAUCUCCCUUUAGUGAGGGUUA
modifications: 2'-NH2 U, 2'-F C
[14]
  IC50: 112 nM

— US6207816, “High affinity oligonucleotide ligands to growth factors” (NeXstar Pharmaceuticals, Inc.)
